# Measured values from IntAct's records for PubMed 23007647.
# B1: Krev interaction trapped protein 1 (Homo sapiens), O00522 (parent)
# chain: MGNPENIEDAYVAVIRPKNTASLNSREYRAKSYEILLHEVPIEGQKKKRKKVLLETKLQGNSEITQGILDYVVETTKPISPANQGIRGKRVVLMKKFPLDGEKMGREASLFIVPSVVKDNTKYTYTPGCPIFYCLQDIMRVCSESSTHFATLTARMLIALDKWLDERHAQSHFIPALFRPSPLERIKTNVINPAYATESGQTENSLHMGYSALEIKSKMLALEKADTCIYNPLFGSDLQYTNRVDKVVINPYFGLGAPDYSKIQIPKQEKWQRSMSSVTEDKERQWVDDFPLHRSACEGDSELLSRLLSERFSVNQLDSDHWAPIHYACWYGKVEATRILLEKGKCNPNLLNGQLSSPLHFAAGGGHAEIVQILLNHPETDRHITDQQGRSPLNICEENKQNNWEEAAKLLKEAINKPYEKVRIYRMDGSYRSVELKHGNNTTVQQIMEGMRLSQETQQYFTIWICSENLSLQLKPYHKPLQHVRDWPEILAELTNLDPQRETPQLFLRRDVRLPLEVEKQIEDPLAILILFDEARYNLLKGFYTAPDAKLITLASLLLQIVYGNYESKKHKQGFLNEENLKSIVPVTKLKSKAPHWTNRILHEYKNLSTSEGVSKEMHHLQRMFLQNCWEIPTYGAAFFTGQIFTKASPSNHKVIPVYVGVNIKGLHLLNMETKALLISLKYGCFMWQLGDTDTCFQIHSMENKMSFIVHTKQAGLVVKLLMKLNGQLMPTERNS
# B2: Protein HEG homolog 1 (Homo sapiens), Q9ULI3 (parent)
# chain: MASPRASRWPPPLLLLLLPLLLLPPAAPGTRDPPPSPARRALSLAPLAGAGLELQLERRPEREPPPTPPRERRGPATPGPSYRAPEPGAATQRGPSGRAPRGGSADAAWKHWPESNTEAHVENITFYQNQEDFSTVSSKEGVMVQTSGKSHAASDAPENLTLLAETADARGRSGSSSRTNFTILPVGYSLEIATALTSQSGNLASESLHLPSSSSEFDERIAAFQTKSGTASEMGTERAMGLSEEWTVHSQEATTSAWSPSFLPALEMGELTTPSRKRNSSGPDLSWLHFYRTAASSPLLDLSSSSESTEKLNNSTGLQSSSVSQTKTMHVATVFTDGGPRTLRSLTVSLGPVSKTEGFPKDSRIATTSSSVLLSPSAVESRRNSRVTGNPGDEEFIEPSTENEFGLTSLRWQNDSPTFGEHQLASSSEVQNGSPMSQTETVSRSVAPMRGGEITAHWLLTNSTTSADVTGSSASYPEGVNASVLTQFSDSTVQSGGSHTALGDRSYSESSSTSSSESLNSSAPRGERSIAGISYGQVRGTAIEQRTSSDHTDHTYLSSTFTKGERALLSITDNSSSSDIVESSTSYIKISNSSHSEYSSFFHAQTERSNISSYDGEYAQPSTESPVLHTSNLPSYTPTINMPNTSVVLDTDAEFVSDSSSSSSSSSSSSSSGPPLPLPSVSQSHHLFSSILPSTRASVHLLKSTSDASTPWSSSPSPLPVSLTTSTSAPLSVSQTTLPQSSSTPVLPRARETPVTSFQTSTMTSFMTMLHSSQTADLKSQSTPHQEKVITESKSPSLVSLPTESTKAVTTNSPLPPSLTESSTEQTLPATSTNLAQMSPTFTTTILKTSQPLMTTPGTLSSTASLVTGPIAVQTTAGKQLSLTHPEILVPQISTEGGISTERNRVIVDATTGLIPLTSVPTSAKEMTTKLGVTAEYSPASRSLGTSPSPQTTVVSTAEDLAPKSATFAVQSSTQSPTTVSSSASVNSCAVNPCLHNGECVADNTSRGYHCRCPPSWQGDDCSVDVNECLSNPCPSTAMCNNTQGSFICKCPVGYQLEKGICNLVRTFVTEFKLKRTFLNTTVEKHSDLQEVENEITKTLNMCFSALPSYIRSTVHASRESNAVVISLQTTFSLASNVTLFDLADRMQKCVNSCKSSAEVCQLLGSQRRIFRAGSLCKRKSPECDKDTSICTDLDGVALCQCKSGYFQFNKMDHSCRACEDGYRLENETCMSCPFGLGGLNCGNPYQLITVVIAAAGGGLLLILGIALIVTCCRKNKNDISKLIFKSGDFQMSPYAEYPKNPRSQEWGREAIEMHENGSTKNLLQMTDVYYSPTSVRNPELERNGLYPAYTGLPGSRHSCIFPGQYNPSFISDESRRRDYF
# How the values were obtained:
# heg1_human HEG1, Q9ULI3 = variants of: B1; settings: with heg1_human HEG1, Q9ULI3
# ccm2_human CCM2, Q9BSQ5 = variants of: B1; settings: with ccm2_human CCM2, Q9BSQ5
# Chain of ccm2_human CCM2, Q9BSQ5 (Q9BSQ5 whole entry): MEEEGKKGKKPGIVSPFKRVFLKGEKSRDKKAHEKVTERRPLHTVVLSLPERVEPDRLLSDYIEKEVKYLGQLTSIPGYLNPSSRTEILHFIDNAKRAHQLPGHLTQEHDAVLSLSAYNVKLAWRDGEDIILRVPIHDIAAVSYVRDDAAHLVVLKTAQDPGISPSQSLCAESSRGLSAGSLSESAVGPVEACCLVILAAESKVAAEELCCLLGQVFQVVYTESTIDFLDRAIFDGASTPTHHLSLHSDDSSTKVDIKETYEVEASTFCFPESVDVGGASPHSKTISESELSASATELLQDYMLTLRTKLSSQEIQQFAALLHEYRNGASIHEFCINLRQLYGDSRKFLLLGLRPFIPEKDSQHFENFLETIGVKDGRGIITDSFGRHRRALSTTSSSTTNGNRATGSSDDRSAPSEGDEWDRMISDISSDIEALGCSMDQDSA
# [1] = variants of: B1; settings: with rap1a_mouse Rap1a
# [2] = variants of: B2; settings: with krit1_human KRIT1, O00522
"effect of a mutation on the interaction (heg1_human HEG1, Q9ULI3)","effect of a mutation on the interaction (ccm2_human CCM2, Q9BSQ5)",effect of a mutation on the interaction [1],effect of a mutation on the interaction [2],Variant
decreasing interaction strength,with no effect,with no effect,,L717A;L721A
,,disrupting interaction strength,,R452E
,,,with no effect,N1367A;F1370A
